Broadly, the Kd is the equilibrium constant for the complex coming apart. A low value points to higher affinity.

Drawing on publication doi:10.1101/2024.11.26.625568 (2024), this text covers Kd for one molecule.

The assay has as its target microtubules (pig brain tubulin) (pig, UniProt P02550 1-451; Q767L7 1-444, Cy3 or Cy5 and biotin labels on a fraction of the tubulin | Cy3 or Cy5 and biotin labels on a fraction of the tubulin).

Chain of microtubules (pig brain tubulin) (P02550 other isoform, or with tags, fused parts or gaps, chain 1 of 2): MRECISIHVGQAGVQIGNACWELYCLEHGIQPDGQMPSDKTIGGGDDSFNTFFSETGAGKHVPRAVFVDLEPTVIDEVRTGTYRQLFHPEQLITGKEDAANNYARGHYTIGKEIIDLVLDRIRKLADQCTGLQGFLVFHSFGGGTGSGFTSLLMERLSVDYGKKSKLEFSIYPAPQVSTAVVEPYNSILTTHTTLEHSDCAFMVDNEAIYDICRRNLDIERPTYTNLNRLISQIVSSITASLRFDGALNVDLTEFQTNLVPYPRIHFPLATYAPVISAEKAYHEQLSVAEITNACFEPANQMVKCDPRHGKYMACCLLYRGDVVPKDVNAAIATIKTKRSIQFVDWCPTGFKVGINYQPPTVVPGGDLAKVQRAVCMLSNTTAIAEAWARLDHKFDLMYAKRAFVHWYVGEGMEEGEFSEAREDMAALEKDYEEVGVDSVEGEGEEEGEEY
Chain of microtubules (pig brain tubulin) (Q767L7 other isoform, or with tags, fused parts or gaps, chain 2 of 2): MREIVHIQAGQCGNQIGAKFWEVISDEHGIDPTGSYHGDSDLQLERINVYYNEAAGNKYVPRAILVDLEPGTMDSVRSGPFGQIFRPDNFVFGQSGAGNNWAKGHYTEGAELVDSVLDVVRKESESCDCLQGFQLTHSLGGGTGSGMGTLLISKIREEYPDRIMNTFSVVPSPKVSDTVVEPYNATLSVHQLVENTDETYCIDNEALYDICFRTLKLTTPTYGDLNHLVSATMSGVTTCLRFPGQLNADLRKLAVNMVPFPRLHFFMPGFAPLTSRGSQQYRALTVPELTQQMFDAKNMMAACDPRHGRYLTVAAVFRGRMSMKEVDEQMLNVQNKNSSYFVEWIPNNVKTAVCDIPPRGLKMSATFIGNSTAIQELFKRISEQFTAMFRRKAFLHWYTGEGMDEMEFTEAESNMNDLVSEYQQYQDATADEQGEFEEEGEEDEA

B1: NuMA Bonsai (other)
chain: MTLHATRGAALLSWVNSLHVADPVEAVLQLQDCSIFIKIIDRIHGTEEGQQILKQPVSERLDFVCSFLQKNRKHPSSPECLVSAQKVLEGSELELAKMTMLLLYHSTMSSKSPRDWEQFEYKIQAELAVILKFVLDHEDGLNLNEDLENFLQKAPVPSTCSSTFPEELSPPSHQAKREIRFLELQKVASSSSGNNFLSGSPASPMGDILQTPQFQMRRLKKQLADERSNRDELELELAENRKLLTEKDAQIAMMQQRIDRLALLNEKQAASPLEPKELEELRDKNESLTMRLHETLKQCQDLKTEKSQMDRKINQLSEENGDLSFKLREFASHLQQLQDALNELTEEHSKATQEWLEKQAQLEKELSAALQDKKCLEEKNEILQGKLSQLEEHLSQLQDNPPQEKGEVLGDVLQLETLKQEAATLAANNTQLQARVEMLETERGQQEAKLLAERGHFEEEKQQLSSLITDLQSSISNLSQAKEELEQASQAHGARLTAQVASLTSELTTLNATIQQQDQELAGLKQQAKEKQAQLAQTLQQQEQASQGLRHQVEQLSSSLKQKEQQLKEVAEKQEATRQDHAQQLATAAEEREASLRERDAALKQLEALEKEKAAKLEILQQQLQVANEARDSAQTSVTQAQREKAELSRKVEELQACVETARQEQHEAQAQVAELELQLRSEQQKATEKERVAQEKDQLQEQLQFQVATDALKSREPQAKPQLDLSIDSLDLSCEEGTPLSITSKLPRTQPDGTSVPGEPASPISQRLPPKVESLESLYFTPIPARSQAPLESSLDSLGDVFLDSGRKTRSARRRTTQIINITMTKKLDVEEPDSANSSFYSTRSAPASQASLRATSSTQSLARLGSPDYGNSALLSLPGYRPTTRSSARRSQAGVSSGAPPGRNSFYMGTCQDEPEQLDDWNRIAELQQRNRVCPPHLKTCYPLESRPSLSLGTITDEEMKTGDPQETLRRASMQPIQIAEGTGITTRQQRKRVSLEPHQGPGTPESKKATSCFPRPMTPRDRHEGRKQSTTEAQKKAAPASTKQADRRQSMAFSILNTPKKLGNSLLRRGASKKALSKASPNTRSGTRRSPRIATTTASAATAAAIGATPRAKGKAKH
Molecule B1 registered a dissociation constant Kd of 279 nM.
